The values below come from patent publication US5624818, “Nucleic acids encoding regulatory proteins that dimerize with Mad or Max” (Fred Hutchinson Cancer Research Center).

Data set [1] deals with c-Myc:Max heterodimer (Homo sapiens, UniProt P01106-1;P61244-2 P01106-1:1-439,P61244-2:1-151). The data set is described as follows: EMSA; supershifted by anti-Myc and anti-Max; 3 mM MgCl2, 50 mM KCl, RT; 5-fold excess cold CM-1 competes. Particulars: label: 32P. (In general: Mobility shift assays separate free from complexed probe on a gel.)
Protocol: The DNA-binding reaction was allowed to proceed at room temperature for 10 minutes.
FIG. 7A: the ability of in vitro translated Myc and Max proteins to bind to the CM-1 oligonucleotide (CACGTG core consensus) was assessed by electrophoretic mobility shift assay. […] Lysates were incubated with ^32P-labeled CM-1 prior to resolution in a 5 percent acrylamide gel. In experiments where antibodies were added, affinity purified antibody (1 mg) was added after formation of the nucleoprotein complex to minimize steric interference. To block the antibody effect, cognate immunogen (1 mg) was added.
Data set [2] deals with GST-C92Myc:Max heterodimer (Homo sapiens, UniProt P01106;P61244-2 P01106:363-454,P61244-2:1-151). Kind of data set: EMSA; heterodimer favored over Max:Max. The conditions noted are these: tags: GST on Myc; label: 32P.
Protocol: The ability of Mad-1 to bind DNA and interact with Max and Myc was examined by the electrophoretic mobility shift assay. […] Non-fusion GST protein was used as a control. […] As a control, the specificity of the electrophoretic mobility shift was assayed by including antibodies to either Max (αMax), GST (αGST), or Myc (αMyc) to the binding reaction. The activity of these antibodies was inhibited by adding the appropriate immunoglobulin to the binding reaction ("+block"). The lanes marked "–" had no additional protein present in the binding reaction.
The ability of Mad-1 to bind DNA and interact with Max and Myc was examined by the EMSA. […] In each experiment the specificity of the mobility shift was assayed by including antibodies to either Max((xMax), GST((xGST) or Myc ((xMyc) were added to the binding reaction.
Data set [3] concerns the target c-Myc deltaN100:Max (Homo sapiens, UniProt P01106-1;P61244-2 P01106-1:101-439,P61244-2:1-151, c-Myc deletion of N-terminal 100 aa). Kind of data set: EMSA. Particulars: label: 32P.
Protocol: FIG. 7A: the ability of in vitro translated Myc and Max proteins to bind to the CM-1 oligonucleotide (CACGTG core consensus) was assessed by electrophoretic mobility shift assay. […] Lysates were incubated with ^32P-labeled CM-1 prior to resolution in a 5 percent acrylamide gel. In experiments where antibodies were added, affinity purified antibody (1 mg) was added after formation of the nucleoprotein complex to minimize steric interference. To block the antibody effect, cognate immunogen (1 mg) was added. […] CM-1 oligonucleotide alone (probe) and unprogrammed reticulocyte lysate (RL) served as background controls. FIG. 7B: The specificity of the Myc-Max shift was tested by competition with 5-, 50-, and 500-fold excess of unlabeled oligonucleotide. […] FIG. 7C: Requirements for the formation of a nucleoprotein complex. Various c-Myc mutants (see FIG. 4 discussion for abbreviations) were assayed for their ability to bind CM-1 in association with Max.
To ascertain whether the association of Myc and Max in a nucleoprotein complex required the same sequences, some of the c-Myc mutants were examined for their ability to bind to CM-1 in a complex with Max.
Data set [4] has as its target Mad-1-His6 full length (Homo sapiens, UniProt Q05195 SEQ:1-221). The data set is described as follows: EMSA; no Max present. Particulars: tags: C-terminal His6 (pET11D); label: 32P.

Mad-1-His6 full length, sequence (Q05195 whole entry): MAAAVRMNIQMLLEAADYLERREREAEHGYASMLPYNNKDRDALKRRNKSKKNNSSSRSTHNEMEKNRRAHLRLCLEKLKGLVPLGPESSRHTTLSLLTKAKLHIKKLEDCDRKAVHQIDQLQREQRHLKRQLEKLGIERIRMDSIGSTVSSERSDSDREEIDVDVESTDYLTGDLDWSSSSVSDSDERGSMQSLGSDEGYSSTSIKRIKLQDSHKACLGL
c-Myc deltaN100:Max, sequence (P01106 116-454, stated change not applied, chain 1 of 2): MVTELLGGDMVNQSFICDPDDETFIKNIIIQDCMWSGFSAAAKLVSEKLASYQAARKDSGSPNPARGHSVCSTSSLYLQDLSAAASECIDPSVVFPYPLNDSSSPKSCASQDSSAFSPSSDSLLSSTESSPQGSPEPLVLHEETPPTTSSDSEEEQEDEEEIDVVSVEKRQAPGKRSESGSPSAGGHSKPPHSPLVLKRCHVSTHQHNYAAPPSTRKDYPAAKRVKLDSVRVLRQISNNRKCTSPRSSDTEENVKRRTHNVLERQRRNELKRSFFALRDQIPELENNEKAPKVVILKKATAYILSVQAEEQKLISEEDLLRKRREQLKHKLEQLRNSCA
c-Myc deltaN100:Max, sequence (P61244 other isoform, or with tags, fused parts or gaps c-Myc deletion of N-terminal 100 aa | mutant, chain 2 of 2): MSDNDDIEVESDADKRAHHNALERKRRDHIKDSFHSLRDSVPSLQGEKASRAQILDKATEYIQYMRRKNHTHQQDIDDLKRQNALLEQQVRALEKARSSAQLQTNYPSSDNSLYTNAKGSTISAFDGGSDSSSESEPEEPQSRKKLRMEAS
GST-C92Myc:Max heterodimer, sequence (P01106 363-454, chain 1 of 2): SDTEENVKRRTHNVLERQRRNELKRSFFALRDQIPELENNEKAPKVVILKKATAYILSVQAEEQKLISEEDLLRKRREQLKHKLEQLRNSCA
GST-C92Myc:Max heterodimer, sequence (P61244 other isoform, or with tags, fused parts or gaps, chain 2 of 2): as the sequence (P61244 other isoform, or with tags, fused parts or gaps c-Myc deletion of N-terminal 100 aa | mutant, chain 2 of 2) above
c-Myc:Max heterodimer, sequence (P01106 16-454, chain 1 of 2): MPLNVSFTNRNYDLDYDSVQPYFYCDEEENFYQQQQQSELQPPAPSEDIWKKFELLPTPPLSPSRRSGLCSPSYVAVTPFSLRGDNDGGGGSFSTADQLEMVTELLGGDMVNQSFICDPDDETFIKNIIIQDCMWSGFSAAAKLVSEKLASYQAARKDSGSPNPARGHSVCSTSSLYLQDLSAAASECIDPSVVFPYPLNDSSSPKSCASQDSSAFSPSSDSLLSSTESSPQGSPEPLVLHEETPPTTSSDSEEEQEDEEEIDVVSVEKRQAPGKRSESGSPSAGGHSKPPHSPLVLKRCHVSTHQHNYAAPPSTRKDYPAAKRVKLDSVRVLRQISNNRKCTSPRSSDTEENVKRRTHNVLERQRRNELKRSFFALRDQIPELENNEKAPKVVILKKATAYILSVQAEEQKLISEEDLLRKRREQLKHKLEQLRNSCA
c-Myc:Max heterodimer, sequence (P61244 other isoform, or with tags, fused parts or gaps, chain 2 of 2): as the sequence (P61244 other isoform, or with tags, fused parts or gaps c-Myc deletion of N-terminal 100 aa | mutant, chain 2 of 2) above

B1: CM-1 (dsDNA)
DNA 1: CCCCCACCACGTGGTGCCTGA
DNA 2: TCAGGCACCACGTGGTGGGGG
Turning to B1, the binding result in data set [1] is on record as “binds”; in data set [2] it was “binds”; in data set [3] it was “binds”; in data set [4], “no binding”.
